{"source": "patent US20170224816A1", "molecular_target": "CD81 (UniProt P60033)", "sequence (P60033 whole entry)": "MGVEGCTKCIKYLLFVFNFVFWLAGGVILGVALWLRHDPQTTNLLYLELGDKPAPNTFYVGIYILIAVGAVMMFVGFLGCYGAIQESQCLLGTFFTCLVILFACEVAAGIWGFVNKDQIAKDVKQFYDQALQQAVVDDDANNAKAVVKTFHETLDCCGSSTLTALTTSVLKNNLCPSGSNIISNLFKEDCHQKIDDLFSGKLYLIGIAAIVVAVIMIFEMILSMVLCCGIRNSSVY", "assay": "cell-based or functional assay", "data": [{"substance": "PCSK9 (proprotein convertase subtilisin/kexin type 9) (from UniProt Q8NBP7 31-692) (enzyme)", "values": [{"measurement": "degradation of total CD81, Western blot of HepG2 cells", "result": 25, "unit": "%"}]}]}
